Series [1] relates to dPspCas13b-ADAR2DD(E488Q) (REPAIRv1) H133A,H1058A (Prevotella sp. P5-125 / Homo sapiens). The experiment in a line: cell_activity.
In series [2] the test system is dPspCas13b-ADAR1DD H133A,H1058A (Prevotella sp. P5-125 / Homo sapiens). The series can be described thus: cell_activity. Particulars: on-target A-to-I RNA editing.

With “Cluc W85X targeting guide ; Cluc W85X transcript (254 A>G site)”, the activity in series [1] (10 ng Cas13-ADAR transfected) is 80 % editing; in series [1] (150 ng Cas13-ADAR transfected), 83 % editing; in series [1] (on-target A-to-I RNA editing) it was 71 % editing; in series [2] it was 29 % editing.

The values above are taken from patent US20210093667.
